The supplement of paper PMC7877785
± gives the uncertainty stated by the source.

Test: self-splicing fitness, log relative to wild type (ln ratio); higher = more splicing; Tetrahymena group I intron in knt gene, E. coli kanamycin selection, DiMSum; sequences stand for … in CUCUCU…GGAGGGAAAAGUUAUCAGGCAUGCACCUGGUAGCUAGUCUUUAAACCAAUAGAUUGCAUCGGUUUAAAAGGCAAGACCGUCAAAUUGCGGGAAAGGGGUCAACAGCCGUUCAGUACCAAGUCUCAGGGGAAACUUUGAGAUGGCCUUGCAAAGGGUAUGGUAAUAAGCUGACGGACAUGGUCCUAACCACGCAGCCAAGUCCUAAGUCAACAGAUCUUCUGUUGAUAUGGAUGCAGUUCACAGACUAAAUGUCGGUCGGGGAAGAUGUAUUCUUCUCAUAAGAUAUAGUCGGACCUCUCCUUAAUGGGAGCUAGCGGAUGAAGUGAUGCAACACUGGAGCCGCUGGGAACUAAUUUGUAUGCGAAAGUAUAUUGAUUAGUUUUGGAGUACUCGUGGUCG
In short: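 Colonies from six replicate transformations of E. coli BL21(DE3) were pooled and amplicon-sequenced on an Illumina HiSeq 2500. The library placed an intron with all eight P1ex-region nucleotides randomised inside the knt kanamycin-resistance gene on pET-22b(+), and cells grew overnight at 37°C or 30°C on LB agar with or without 25 μg/mL kanamycin (plus 100 μg/mL carbenicillin, 50 μM IPTG, 0.2% rhamnose). Fitness is the DiMSum error-weighted combination of wild-type-normalised replicate fold changes, kanamycin versus none.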

| Sequence | self-splicing fitness (ln) (30 °C) | self-splicing fitness (ln) (37 °C) |
| --- | --- | --- |
| AUACAGCAAUAUUACGAUCU | -0.478 ± 0.077 | -0.0165 ± 0.087 |
| AUACAGCAAUAUUACGAUGA | -1.42 ± 0.11 | -0.0115 ± 0.1 |
| AUACAGCAAUAUUACGCGCG | -0.869 ± 0.1 | -1.07 ± 0.093 |
| AUACAGCAAUAUUACGCUUG | -1.35 ± 0.08 | -0.94 ± 0.1 |
| AUACAGCAAUAUUACGGAAA | -3.24 ± 0.2 | -2.16 ± 0.17 |
| AUACAGCAAUAUUACGGCAU | -0.388 ± 0.083 | 0.525 ± 0.099 |
| AUACAGCAAUAUUACGGCGC | -0.801 ± 0.1 | 0.447 ± 0.15 |
| AUACAGCAAUAUUACGGCGG | -1.19 ± 0.095 | -0.617 ± 0.12 |
| AUACAGCAAUAUUACGGGCC | -2.7 ± 0.17 | -2.82 ± 0.44 |
| AUACAGCAAUAUUACGGGUC | -3.7 ± 0.21 | -2.48 ± 0.19 |
| AUACAGCAAUAUUACGUUUU | -2.19 ± 0.12 | -2.09 ± 0.15 |
| AUAGAGCAAUAUUACGAAUU | -0.889 ± 0.15 | -0.429 ± 0.23 |
| AUAGAGCAAUAUUACGACCG | -2.9 ± 0.27 | -1.57 ± 0.43 |
| AUAGAGCAAUAUUACGACGU | 0.0144 ± 0.077 | 0.556 ± 0.099 |
| AUAGAGCAAUAUUACGAGGG | -3.05 ± 0.25 | -1.56 ± 0.26 |
| AUAGAGCAAUAUUACGAUCA | -0.545 ± 0.098 | -0.894 ± 0.15 |
| AUAGAGCAAUAUUACGAUUC | -2.37 ± 0.28 | -1.08 ± 0.33 |
| AUAGAGCAAUAUUACGAUUU | -0.251 ± 0.081 | 0.0148 ± 0.1 |
| AUAGAGCAAUAUUACGCAGA | -2.57 ± 0.21 | -1.84 ± 0.16 |
| AUAGAGCAAUAUUACGCAGC | -2.33 ± 0.45 | – |
| AUAGAGCAAUAUUACGCAUC | -3.91 ± 0.31 | -2.11 ± 0.25 |
| AUAGAGCAAUAUUACGCAUG | -1.85 ± 0.16 | -1.42 ± 0.23 |
| AUAGAGCAAUAUUACGCCGU | -0.866 ± 0.21 | 0.511 ± 0.26 |
| AUAGAGCAAUAUUACGCGCG | -1.47 ± 0.2 | -0.725 ± 0.23 |
| AUAGAGCAAUAUUACGCGCU | -2.64 ± 0.29 | -0.717 ± 0.24 |

| Sequence | self-splicing fitness (ln) (30 °C) | self-splicing fitness (ln) (37 °C) |
| --- | --- | --- |
| AUAGAGCAAUAUUACGCGGA | -1.35 ± 0.092 | -1.48 ± 0.11 |
| AUAGAGCAAUAUUACGCGUC | -1.8 ± 0.39 | -1.82 ± 0.26 |
| AUAGAGCAAUAUUACGCUAA | -1.33 ± 0.13 | -0.315 ± 0.18 |
| AUAGAGCAAUAUUACGCUGA | -1.26 ± 0.15 | -1.03 ± 0.17 |
| AUAGAGCAAUAUUACGGAAC | -3.66 ± 0.27 | -1.92 ± 0.24 |
| AUAGAGCAAUAUUACGGCAA | -1.97 ± 0.21 | -0.382 ± 0.17 |
| AUAGAGCAAUAUUACGUAGA | -3.41 ± 0.25 | -2.52 ± 0.24 |
| AUAGAGCAAUAUUACGUAGG | -2.32 ± 0.18 | -2.65 ± 0.38 |
| AUAGAGCAAUAUUACGUAUC | -2.94 ± 0.37 | -2.16 ± 0.43 |
| AUAGAGCAAUAUUACGUGGG | -3.77 ± 0.31 | -1.79 ± 0.32 |
| AUAGAGCAAUAUUACGUUAA | -2.32 ± 0.19 | -1.76 ± 0.23 |
| AUAGAGCAAUAUUACGUUCU | -1.35 ± 0.15 | 0.267 ± 0.17 |
| AUAUAGCAAUAUUACGAACG | -1.56 ± 0.18 | -0.154 ± 0.2 |
| AUAUAGCAAUAUUACGAAGC | -2.96 ± 0.31 | – |
| AUAUAGCAAUAUUACGAAGU | -3.37 ± 0.3 | -1.63 ± 0.36 |
| AUAUAGCAAUAUUACGAAUA | -1.36 ± 0.32 | – |
| AUAUAGCAAUAUUACGACGG | -2.5 ± 0.17 | -2.5 ± 0.22 |
| AUAUAGCAAUAUUACGAUGU | 0.361 ± 0.18 | -0.83 ± 0.23 |
| AUAUAGCAAUAUUACGCGAA | – | -1.32 ± 0.23 |
| AUAUAGCAAUAUUACGCGAG | -2.35 ± 0.13 | -1.09 ± 0.13 |
| AUAUAGCAAUAUUACGCGAU | -2.69 ± 0.33 | -1.57 ± 0.49 |
| AUAUAGCAAUAUUACGCGGG | -2.72 ± 0.38 | -1.33 ± 0.22 |
| AUAUAGCAAUAUUACGCGGU | -2.75 ± 0.18 | -2.28 ± 0.19 |
| AUAUAGCAAUAUUACGCUGU | -2.9 ± 0.22 | -2.32 ± 0.21 |
| AUAUAGCAAUAUUACGGAAU | -1.92 ± 0.21 | 0.227 ± 0.23 |

| Sequence | self-splicing fitness (ln) (30 °C) | self-splicing fitness (ln) (37 °C) |
| --- | --- | --- |
| AUAUAGCAAUAUUACGGACA | -1.48 ± 0.22 | -1.2 ± 0.23 |
| AUAUAGCAAUAUUACGGAGG | -3.24 ± 0.45 | – |
| AUAUAGCAAUAUUACGGCCG | -1.15 ± 0.2 | -0.566 ± 0.25 |
| AUAUAGCAAUAUUACGGGAC | -2.51 ± 0.48 | -1.82 ± 0.48 |
| AUAUAGCAAUAUUACGGGAG | -4.22 ± 0.39 | -1.59 ± 0.24 |
| AUAUAGCAAUAUUACGGGCG | -1.47 ± 0.17 | -0.59 ± 0.15 |
| AUAUAGCAAUAUUACGGUCA | -1.16 ± 0.23 | -0.947 ± 0.19 |
| AUAUAGCAAUAUUACGGUCC | -2.8 ± 0.25 | -1.44 ± 0.33 |
| AUAUAGCAAUAUUACGGUCG | -1.44 ± 0.13 | -1.26 ± 0.17 |
| AUAUAGCAAUAUUACGGUCU | -0.211 ± 0.076 | 0.0619 ± 0.1 |
| AUAUAGCAAUAUUACGUCCG | – | -1.64 ± 0.43 |
| AUAUAGCAAUAUUACGUCGC | -2.48 ± 0.27 | -1.31 ± 0.37 |
| AUAUAGCAAUAUUACGUUCU | -1.47 ± 0.18 | -0.302 ± 0.21 |
| AUAUAGCAAUAUUACGUUGA | -2.63 ± 0.22 | -2.53 ± 0.26 |
| AUAUAGCAAUAUUACGUUUC | -2.54 ± 0.27 | -1.45 ± 0.3 |
| AUCAAGCAAUAUUACGAGCG | -1.92 ± 0.12 | -1.21 ± 0.14 |
| AUCAAGCAAUAUUACGAUUC | -2.14 ± 0.12 | -1.25 ± 0.16 |
| AUCAAGCAAUAUUACGCAAA | -2.96 ± 0.2 | -1.67 ± 0.15 |
| AUCAAGCAAUAUUACGCAGC | -2.12 ± 0.2 | -1.8 ± 0.25 |
| AUCAAGCAAUAUUACGCAUA | -1.94 ± 0.099 | -0.751 ± 0.084 |
| AUCAAGCAAUAUUACGCAUC | -3.97 ± 0.24 | -1.64 ± 0.14 |
| AUCAAGCAAUAUUACGCUCG | -0.803 ± 0.091 | -0.236 ± 0.11 |
| AUCAAGCAAUAUUACGGGAU | -2.33 ± 0.097 | -2.12 ± 0.13 |
| AUCAAGCAAUAUUACGGGUA | -2.04 ± 0.11 | -1.16 ± 0.091 |
| AUCAAGCAAUAUUACGGGUC | -3.33 ± 0.29 | -2.19 ± 0.27 |

| Sequence | self-splicing fitness (ln) (30 °C) | self-splicing fitness (ln) (37 °C) |
| --- | --- | --- |
| AUCAAGCAAUAUUACGGUAU | -1.93 ± 0.063 | -0.833 ± 0.077 |
| AUCAAGCAAUAUUACGGUCG | -2.22 ± 0.12 | -2.03 ± 0.14 |
| AUCAAGCAAUAUUACGUCCC | -0.841 ± 0.076 | 0.17 ± 0.11 |
| AUCAAGCAAUAUUACGUUAU | -2.29 ± 0.1 | -0.69 ± 0.09 |
| AUCAAGCAAUAUUACGUUCU | -0.858 ± 0.092 | -0.459 ± 0.12 |
| AUCCAGCAAUAUUACGAAAC | -2.56 ± 0.11 | -1.47 ± 0.16 |
| AUCCAGCAAUAUUACGACAG | -3.47 ± 0.14 | -1.75 ± 0.19 |
| AUCCAGCAAUAUUACGAGCG | -2.01 ± 0.11 | -1.24 ± 0.12 |
| AUCCAGCAAUAUUACGAGGA | -2.21 ± 0.17 | -1.49 ± 0.17 |
| AUCCAGCAAUAUUACGAUAA | -1.56 ± 0.15 | -1.03 ± 0.19 |
| AUCCAGCAAUAUUACGAUUU | -0.0954 ± 0.061 | 0.488 ± 0.081 |
| AUCCAGCAAUAUUACGCCAG | -0.923 ± 0.44 | -2.6 ± 0.48 |
| AUCCAGCAAUAUUACGCCAU | -3.28 ± 0.21 | -1.27 ± 0.14 |
| AUCCAGCAAUAUUACGCCGC | -4.25 ± 0.46 | -2.58 ± 0.38 |
| AUCCAGCAAUAUUACGCCGG | -3.51 ± 0.24 | -2.36 ± 0.41 |
| AUCCAGCAAUAUUACGCCUC | -1.53 ± 0.089 | -1.06 ± 0.14 |
| AUCCAGCAAUAUUACGCGUC | -3.24 ± 0.12 | -1.3 ± 0.13 |
| AUCCAGCAAUAUUACGCUCC | -0.802 ± 0.12 | 0.304 ± 0.2 |
| AUCCAGCAAUAUUACGGAUA | -3.19 ± 0.18 | -0.948 ± 0.12 |
| AUCCAGCAAUAUUACGGUCA | -0.209 ± 0.065 | 0.168 ± 0.072 |
| AUCCAGCAAUAUUACGGUCG | -0.645 ± 0.058 | 0.12 ± 0.089 |
| AUCCAGCAAUAUUACGUUGC | -3.87 ± 0.14 | -2.86 ± 0.15 |
